Marks after values point to notes of the source that are not given here.
Tests used:
[1] = In vivo broiler trial 1, growth performance; parameters: species or system male broiler chickens (ROSS PM3)
chicken gut microbiota = test: Microbiota analysis of broiler trial 4 (16S rRNA), overall composition; format: in vivo; settings: 50 ppm; ceca content
[2] = Grower (d 22-36), 50 mg/kg feed
[3] = Grower (d 22-36), 100 mg/kg feed
[4] = Grower (d 22-36), 200 mg/kg feed
[5] = Starter (d 1-22), 25 mg/kg feed
[6] = Starter (d 1-22), 50 mg/kg feed
[7] = Starter (d 1-22), 100 mg/kg feed
[8] = Starter (d 1-22), 200 mg/kg feed
[9] = Whole period (d 1-36), 25 mg/kg feed
[10] = Whole period (d 1-36), 50 mg/kg feed
[11] = Whole period (d 1-36), 100 mg/kg feed
[12] = Whole period (d 1-36), 200 mg/kg feed

B1: SEQ ID NO: 1: mature amino acid sequence of a wild type GH25 lysozyme from Acremonium alcalophilum with N-terminal SPIRR (protein)
chain: SPIRRRIPGFDISGWQPTTDFARAYANGDRFVYIKATEGTTFKSSAFSRQYTGATQNGFIRGAYHFAQPAASSGAAQARYFASNGGGWSKDGITLPGALDIEYNPNGATCYGLSQSAMVNWIEDFVTTYHGITSRWPVIYTTTDWWTQCTGNSNRFANRCPLWIARYASSVGTLPNGWGFYTFWQYNDKYPQGGDSNWFNGDASRLRALANGD
modifications: Wild type sequence with N-terminal SPIRR
- Weight gain [1, 2]: 1747 g/b
- Weight gain, Relative to C (%) [1, 2]: 99.3%
- FCR [1, 3]: 1.662^c
- FCR, Relative to C (%) [1, 3]: 95.8%
- Feed intake [1, 3]: 2870^b g/b
- Feed intake, Relative to C (%) [1, 3]: 94.1%
- Weight gain [1, 3]: 1729 g/b
- Weight gain, Relative to C (%) [1, 3]: 98.2%
- FCR [1, 4]: 1.742^a
- FCR, Relative to C (%) [1, 4]: 100.5%
- Feed intake [1, 4]: 2934^ab g/b
- Feed intake, Relative to C (%) [1, 4]: 96.2%
- Weight gain [1, 4]: 1685 g/b
- Weight gain, Relative to C (%) [1, 4]: 95.7%
- FCR [1, 5]: 1.781^ab
- FCR, Relative to C (%) [1, 5]: 98%
- Feed intake [1, 5]: 1985 g/b
- Feed intake, Relative to C (%) [1, 5]: 99.5%
- Weight gain [1, 5]: 1115 g/b
- Weight gain, Relative to C (%) [1, 5]: 101.3%
- FCR [1, 6]: 1.793^ab
- FCR, Relative to C (%) [1, 6]: 98.7%
- Feed intake [1, 6]: 1977 g/b
- Feed intake, Relative to C (%) [1, 6]: 99.1%
- Weight gain [1, 6]: 1102 g/b
- Weight gain, Relative to C (%) [1, 6]: 100.1%
- FCR [1, 7]: 1.723^bc
- FCR, Relative to C (%) [1, 7]: 94.9%
- Feed intake [1, 7]: 1941 g/b
- Feed intake, Relative to C (%) [1, 7]: 97.3%
- Weight gain [1, 7]: 1127 g/b
- Weight gain, Relative to C (%) [1, 7]: 102.4%
- FCR [1, 8]: 1.696^c
- FCR, Relative to C (%) [1, 8]: 93.4%
- Feed intake [1, 8]: 1946 g/b
- Feed intake, Relative to C (%) [1, 8]: 97.6%
- Weight gain [1, 8]: 1148 g/b
- Weight gain, Relative to C (%) [1, 8]: 104.2%
- FCR [1, 9]: 1.716^bc
- FCR, Relative to C (%) [1, 9]: 97.3%
- Feed intake [1, 9]: 4991^ab g/b
- Feed intake, Relative to C (%) [1, 9]: 98.9%
- Weight gain [1, 9]: 2908 g/b
- Weight gain, Relative to C (%) [1, 9]: 101.6%
- FCR [1, 10]: 1.727^b
- FCR, Relative to C (%) [1, 10]: 97.9%
- Feed intake [1, 10]: 4920^ab g/b
- Feed intake, Relative to C (%) [1, 10]: 97.5%
- Weight gain [1, 10]: 2849 g/b
- Weight gain, Relative to C (%) [1, 10]: 99.6%
- FCR [1, 11]: 1.686^c
- FCR, Relative to C (%) [1, 11]: 95.6%
- Feed intake [1, 11]: 4815^b g/b
- Feed intake, Relative to C (%) [1, 11]: 95.4%
- Weight gain [1, 11]: 2856 g/b
- Weight gain, Relative to C (%) [1, 11]: 99.8%
- FCR [1, 12]: 1.722^b
- FCR, Relative to C (%) [1, 12]: 97.6%
- Feed intake [1, 12]: 4877^ab g/b
- Feed intake, Relative to C (%) [1, 12]: 96.6%
- Weight gain [1, 12]: 2832 g/b
- Weight gain, Relative to C (%) [1, 12]: 99%
- Improvement of weight gain compared to the control diet ([1]; day 1 to day 36, 25 mg/kg): 1.6%
- Improvement of FCR compared to the control diet ([1]; starter period, 25 mg/kg): 2.0%
- Improvement of weight gain compared to the control diet ([1]; starter period, 25 mg/kg): 1.3%
- Improvement of FCR compared to the control diet ([1]; starter period, 100 mg/kg): 5.1%
- Improvement of weight gain compared to the control diet ([1]; starter period, 100 mg/kg): 2.4%
- Improvement of FCR compared to the control diet ([1]; starter period, 200 mg/kg): 6.6%
- Improvement of weight gain compared to the control diet ([1]; starter period, 200 mg/kg): 4.2%
- Observed shift in the composition of the microbiota compared to the control group, Significance (chicken gut microbiota): +++ (Significant change (+++), p-value < 0.05)

Reference: patent US10568344B2, “Methods of improving animal performance” (Novozymes A/S, priority 2015, dated 2020)
